Measurements from patent US20250215089A1 (HARBOUR BIOMED SHANGHAI, published 2025).
Where a chain is given by its changes, count along the chain named. Names and notes keep the numbering of the source.

B1: PR007280 (bispecific antibody, human IgG1, kappa)
heavy: QVQLVESGGGVVQPGMSLRLSCAASGFDFSSYGMYWVRQAPGKGQEWVASIRYTGTEKHYADSVKGRFTISRDNSKNTLYLEMNSLRVEDTAVYYCAKNRAIFGVVPDASDIRGQGTMVTVSSGGGGSQVQLVQSGAEVKKPGASVKVSCKASGYTFAGYYMYWVRQAPGQGLEWMGWINPDSGAPTYAQKFQGRVTMTRDTSISTAYMELSRLRSDDTAVYYCAREKIYYGSGNYYPSFDYWGQGTLVTVSSASTKGPSVFPLAPSSKSTSGGTAALGCLVKDYFPEPVTVSWNSGALTSGVHTFPAVLQSSGLYSLSSVVTVPSSSLGTQTYICNVNHKPSNTKVDKKVEPKSCDKTHTCPPCPAPEAAGAPSVFLFPPKPKDTLMISRTPEVTCVVVDVSHEDPEVKFNWYVDGVEVHNAKTKPREEQYNSTYRVVSVLTVLHQDWLNGKEYKCKVSNKALPAPIEKTISKAKGQPREPQVYTLPPSREEMTKNQVSLTCLVKGFYPSDIAVEWESNGQPENNYKTTPPVLDSDGSFFLYSKLTVDKSRWQQGNVFSCSVMHEALHNHYTQKSLSLSPGK
light: DIQLTQSPSFLSASVGDRVTITCRASQGISSYLAWYQQKPGKAPKLLIYAASTLQSGVPSRFSGSGSGTEFTLTISSLQPEDFATYYCQQLVSYPWTFGQGTKVEIKRTVAAPSVFIFPPSDEQLKSGTASVVCLLNNFYPREAKVQWKVDNALQSGNSQESVTEQDSKDSTYSLSSTLTLSKADYEKHKVYACEVTHQGLSSPVTKSFNRGEC
notes: VH of PR006245 (PD-L1) - GS_5 - heavy chain of CD40 IgG PR006504; human IgG1 L234A/L235A/G237A; also called PD-L1×CD40
B2: PR007617 (bispecific antibody, human IgG1, kappa)
heavy: QVQLVESGGGVVQPGMSLRLSCAASGFDFSSYGMYWVRQAPGKGQEWVASIRYTGTEKHYADSVKGRFTISRDNSKNTLYLEMNSLRVEDTAVYYCAKNRAIFGVIPDDSDIRGQGTMVTVSSGGSQVQLVQSGAEVKKPGASVKVSCKASGYTFAGYYMYWVRQAPGQGLEWMGWINPDSGAPTYAQKFQGRVTMTRDTSISTAYMELSRLRSDDTAVYYCAREKIYYGSGNYYPSFDYWGQGTLVTVSSASTKGPSVFPLAPSSKSTSGGTAALGCLVKDYFPEPVTVSWNSGALTSGVHTFPAVLQSSGLYSLSSVVTVPSSSLGTQTYICNVNHKPSNTKVDKKVEPKSCDKTHTCPPCPAPEAAGAPSVFLFPPKPKDTLMISRTPEVTCVVVDVSHEDPEVKFNWYVDGVEVHNAKTKPREEQYNSTYRVVSVLTVLHQDWLNGKEYKCKVSNKALPAPIEKTISKAKGQPREPQVYTLPPSREEMTKNQVSLTCLVKGFYPSDIAVEWESNGQPENNYKTTPPVLDSDGSFFLYSKLTVDKSRWQQGNVFSCSVMHEALHNHYTQKSLSLSPGK
light: B1 light with V92A
notes: VH of PR006246 (PD-L1) - GS_3 - heavy chain of CD40 IgG PR006495; human IgG1 L234A/L235A/G237A; also called PD-L1×CD40
B3: PR007282 (bispecific antibody, human IgG1, kappa)
heavy: B1 heavy with I102L, V106I
light: B1 light
notes: VH of PR006247 (PD-L1) - GS_5 - heavy chain of CD40 IgG PR006504; human IgG1 L234A/L235A/G237A; also called PD-L1×CD40
B4: PR007620 (bispecific antibody, human IgG1, kappa)
heavy: B2 heavy with I102L
light: B1 light
notes: VH of PR006248 (PD-L1) - GS_3 - heavy chain of CD40 IgG PR006504; human IgG1 L234A/L235A/G237A; also called PD-L1×CD40
B5: PR007556 (bispecific antibody, human IgG1, kappa)
heavy: B1 heavy with I102L, V106I, A109D
light: B1 light with V92F
notes: VH of PR006248 (PD-L1) - GS_5 - heavy chain of CD40 IgG PR006496; human IgG1 L234A/L235A/G237A; also called PD-L1×CD40
B6: PR007618 (bispecific antibody, human IgG1, kappa)
heavy: B2 heavy with I102L
light: B1 light with V92A
notes: VH of PR006248 (PD-L1) - GS_3 - heavy chain of CD40 IgG PR006495; human IgG1 L234A/L235A/G237A; also called PD-L1×CD40
B7: PR007281 (bispecific antibody, human IgG1, kappa)
heavy: B1 heavy with V106I, A109D
light: B1 light
notes: VH of PR006246 (PD-L1) - GS_5 - heavy chain of CD40 IgG PR006504; human IgG1 L234A/L235A/G237A; also called PD-L1×CD40
B8: PR007616 (bispecific antibody, human IgG1, kappa)
heavy: B1 heavy with I102L, V106I, A109D
light: B1 light with V92Y
notes: VH of PR006248 (PD-L1) - GS_5 - heavy chain of CD40 IgG PR006497; human IgG1 L234A/L235A/G237A; also called PD-L1×CD40

These binders were tested against T1, human PD-L1 (human, UniProt Q9NZQ7 19-290) (assay: FACS, NCI-H226 cells).
T1 construct: whole, on cells; also called hPD-L1; CD274
T1 sequence (Q9NZQ7 19-290): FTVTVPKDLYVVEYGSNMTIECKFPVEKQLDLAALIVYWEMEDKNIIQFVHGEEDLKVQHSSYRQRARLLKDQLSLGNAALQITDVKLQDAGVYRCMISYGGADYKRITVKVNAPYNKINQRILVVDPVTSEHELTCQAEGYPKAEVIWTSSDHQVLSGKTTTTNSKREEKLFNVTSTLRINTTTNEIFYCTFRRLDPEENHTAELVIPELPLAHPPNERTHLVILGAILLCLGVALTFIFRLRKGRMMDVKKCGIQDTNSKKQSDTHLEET
Description: (§1) Specifically, the cells expressing PD-L1 were digested and resuspended in PBS buffer containing 2% BSA. The cells were adjusted to a cell density of 1×10⁶ cells/mL, respectively. The cells were seeded in a 96-well V-bottom plate (Corning, #3894) at 100 μL/well, and the antibody to be tested at 2×final concentration with 4-fold concentration gradient dilution was then added at 100 μL/well. The cells were incubated at 4° C. for 2 hours in the dark. After the incubation, the cells were rinsed twice by adding pre-chilled PBS containing 2% BSA at 100 μL/well, and centrifuged at 500 g at 4° C. for 5 minutes, and the supernatant was discarded. […] The cells were washed twice by adding pre-chilled PBS containing 2% BSA at 100 µL/well, and centrifuged at 500 g at 4° C. for 5 minutes, and the supernatant was discarded. Finally, the cells were resuspended in pre-chilled PBS buffer containing 2% BSA at 200 μL/well. The fluorescence signal values were read using a BD FACS CANTOII flow cytometer or ACEA NovoCyte flow cytometer, and the data were processed and analyzed using FlowJo v10 software (FlowJo, LLC).

Point of comparison: B1, EC50 1.02 nM. Against it:
- B2 — 3-fold lower, 0.337 nM
- B3 — 1.7-fold lower, 0.61 nM
- B4 — 3.6-fold lower, 0.281 nM
- B5 — 2.3-fold lower, 0.452 nM
- B6 — 3.2-fold lower, 0.322 nM
- B7 — 2-fold lower, 0.503 nM
- B8 — 3.4-fold lower, 0.303 nM

Point of comparison: B1, “Maximum MFI” value 1020 MFI. Against it:
- B2 — lower, 831 MFI
- B3 — lower, 983 MFI
- B4 — higher, 1030 MFI
- B5 — lower, 861 MFI
- B6 — lower, 902 MFI
- B7 — lower, 921 MFI
- B8 — lower, 800 MFI

What follows are binders tested against T2, cynomolgus monkey CD40 (cynomolgus monkey) (assay: FACS, CHO-K1/cyCD40 cells).
T2 construct: whole, on cells; also called cyCD40
Description: (§2) The cells were incubated at 4° C. for 1 hours in the dark. After the incubation, the cells were rinsed twice by adding pre-chilled PBS at 100 μL/well, and centrifuged at 500 g at 4° C. for 5 minutes, and the supernatant was discarded. Then, a fluorescent secondary antibody (goat anti-human IgG (H+L) secondary antibody, Alexa Fluor® 488 conjugate, Invitrogen, #A11013, 1:1000 dilution) was added at 100 μL/well, and the cells were incubated at 4° C. for 30 minutes in the dark. The cells were washed twice with pre-chilled PBS at 200 μL/well, and centrifuged at 500 g at 4° C. for 5 minutes, and the supernatant was discarded. Finally, the cells were resuspended in pre-chilled PBS at 200 μL/well. The fluorescence signal values were read using a BD FACS CANTOII flow cytometer or ACEA NovoCyte flow cytometer, and the data were processed and analyzed using FlowJo v10 software (FlowJo, LLC).

Point of comparison: B5, EC50 2.58 nM. Against it:
- B1 — within 1.5-fold, 2.65 nM
- B2 — within 1.5-fold, 2.45 nM
- B3 — within 1.5-fold, 2.43 nM
- B4 — within 1.5-fold, 2.48 nM
- B6 — within 1.5-fold, 3.07 nM
- B7 — within 1.5-fold, 3.63 nM
- B8 — within 1.5-fold, 2.22 nM

Point of comparison: B7, “Maximum MFI” value 65000 MFI. Against it:
- B1 — lower, 50100 MFI
- B2 — lower, 58700 MFI
- B3 — lower, 50100 MFI
- B4 — higher, 68000 MFI
- B5 — lower, 55500 MFI
- B6 — higher, 67900 MFI
- B8 — lower, 64700 MFI

What follows are binders tested against T3, human CD40 (human, UniProt P25942 21-277) (assay: FACS, CHO-K1/hCD40 cells).
T3 construct: whole, on cells; also called hCD40; TNFRSF5
T3 sequence (P25942 21-277): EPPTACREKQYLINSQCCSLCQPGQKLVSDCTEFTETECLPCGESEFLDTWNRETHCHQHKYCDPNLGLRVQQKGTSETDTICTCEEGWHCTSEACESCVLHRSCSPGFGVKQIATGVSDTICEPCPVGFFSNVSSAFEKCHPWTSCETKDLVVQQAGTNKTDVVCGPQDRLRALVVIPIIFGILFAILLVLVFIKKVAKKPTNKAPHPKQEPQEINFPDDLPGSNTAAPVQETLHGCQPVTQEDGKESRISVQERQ
Description: as §2

Point of comparison: B7, EC50 2.13 nM. Against it:
- B1 — 1.8-fold higher, 3.83 nM
- B2 — within 1.5-fold, 1.96 nM
- B3 — within 1.5-fold, 1.88 nM
- B4 — within 1.5-fold, 2.2 nM
- B5 — within 1.5-fold, 1.69 nM
- B6 — within 1.5-fold, 2.22 nM
- B8 — within 1.5-fold, 1.99 nM

Point of comparison: B6, “Maximum MFI” value 16800 MFI. Against it:
- B1 — lower, 15000 MFI
- B2 — the same, 16800 MFI
- B3 — lower, 13500 MFI
- B4 — lower, 15300 MFI
- B5 — lower, 14600 MFI
- B7 — lower, 14200 MFI
- B8 — higher, 19200 MFI

Each binder was assayed against T4, cynomolgus monkey PD-L1 (cynomolgus monkey) (assay: FACS, CHO-K1/cyPD-L1 cells).
T4 construct: whole, on cells; also called cyPD-L1
Description: as §1

Point of comparison: B4, EC50 0.757 nM. Against it:
- B1 — within 1.5-fold, 1.02 nM
- B2 — within 1.5-fold, 0.635 nM
- B3 — within 1.5-fold, 0.834 nM
- B5 — within 1.5-fold, 0.683 nM
- B6 — within 1.5-fold, 0.69 nM
- B7 — within 1.5-fold, 0.632 nM
- B8 — within 1.5-fold, 0.687 nM

Point of comparison: B2, “Maximum MFI” value 4830 MFI. Against it:
- B1 — the same, 4830 MFI
- B3 — lower, 4620 MFI
- B4 — higher, 4840 MFI
- B5 — lower, 4720 MFI
- B6 — higher, 4870 MFI
- B7 — lower, 4610 MFI
- B8 — lower, 4750 MFI

The binders below were run against T3, human CD40 (assay: FACS, Raji cells).
Description: as §2

Point of comparison: B1, EC50 1.65 nM. Against it:
- B2 — within 1.5-fold, 1.27 nM
- B3 — within 1.5-fold, 1.45 nM
- B4 — within 1.5-fold, 1.32 nM
- B5 — within 1.5-fold, 1.28 nM
- B6 — within 1.5-fold, 1.23 nM
- B7 — within 1.5-fold, 1.46 nM
- B8 — within 1.5-fold, 1.24 nM

Point of comparison: B4, “Maximum MFI” value 6710 MFI. Against it:
- B1 — higher, 7700 MFI
- B2 — higher, 6850 MFI
- B3 — higher, 7520 MFI
- B5 — lower, 6560 MFI
- B6 — lower, 6700 MFI
- B7 — higher, 7600 MFI
- B8 — lower, 6680 MFI

Each binder was assayed against T1, human PD-L1 (assay: cell-based or functional assay).

Point of comparison: B3, “EC50, Jurkat-NFAT-hPD1 reporter” value 0.188 nM. Against it:
- B1 — 1.6-fold higher, 0.295 nM
- B2 — within 1.5-fold, 0.157 nM
- B4 — 1.7-fold higher, 0.319 nM
- B5 — within 1.5-fold, 0.225 nM
- B6 — 1.6-fold lower, 0.12 nM
- B7 — within 1.5-fold, 0.19 nM
- B8 — within 1.5-fold, 0.204 nM

Point of comparison: B6, “Maximum (RLU), Jurkat-NFAT-hPD1 reporter” value 2470 RLU. Against it:
- B1 — higher, 2560 RLU
- B2 — lower, 2190 RLU
- B3 — higher, 2480 RLU
- B4 — higher, 3740 RLU
- B5 — higher, 4080 RLU
- B7 — higher, 3840 RLU
- B8 — higher, 2590 RLU

These binders were tested against T1, human PD-L1 (assay: FACS, CHO-K1/hPD-L1 cells).
Description: as §1

Point of comparison: B3, EC50 1.46 nM. Against it:
- B1 — within 1.5-fold, 1.58 nM
- B2 — within 1.5-fold, 1.01 nM
- B4 — within 1.5-fold, 1.15 nM
- B5 — within 1.5-fold, 1.03 nM
- B6 — within 1.5-fold, 1.04 nM
- B7 — within 1.5-fold, 1.13 nM
- B8 — within 1.5-fold, 1.07 nM

Point of comparison: B7, “Maximum MFI” value 19900 MFI. Against it:
- B1 — higher, 20200 MFI
- B2 — higher, 20200 MFI
- B3 — higher, 20400 MFI
- B4 — higher, 20300 MFI
- B5 — higher, 20100 MFI
- B6 — higher, 20100 MFI
- B8 — higher, 20300 MFI
